The target of test [1] is T1, SC142-reactive antigen (human (endogenous in SNU16), highly glycosylated (O-glycans)). The test is described as follows: SPR; apparent; immobilised mAb, 1:1 Langmuir global fit. In general terms: In SPR one partner is held on a chip, and binding of the other changes the refractive index at the surface.
Test [2] has as its target T1, SC142-reactive antigen. Description: SPR; apparent; immobilised scFv, 1:1 Langmuir global fit.

B1: SC142 monoclonal antibody (antibody, V domains shown)
VH: QVKLQQSGTEVVKPGASVKLSCKASGYIFTSYDIDWVRQTPEQGLEWIGWIFPGEGSTEYNEKFKGRATLSVDKSSSTAYMELTRLTSEDSAVYFCARGDYYRRYFDLWGQGTTVTVSS
VL: DIELTQSPTIMSASPGERVTMTCSASSSIRYIYWYQQKPGSSPRLLIYDTSNVAPGVPFRFSGSGSGTSYSLTINRMEAEDAATYYCLEWSGYPYTFGGGTKLELK
As a reminder, the koff is a measure of how fast the partners let go of each other. Regarding B1, the koff with SC142-reactive antigen [1] came to 0.000825 s⁻¹.

B2: recombinant SC142 scFv (scFv, V domains shown)
VH: QVKLQQSGTEVVKPGASVKLSCKASGYIFTSYDIDWVRQTPEQGLEWIGWIFPGEGSTEYNEKFKGRATLSVDKSSSTAYMELTRLTSEDSAVYFCARGDYYRRYFDLWGQGTTVTVSS
VL: DIELTQSPTIMSASPGERVTMTCSASSSIRYIYWYQQKPGSSPRLLIYDTSNVAPGVPFRFSGSGSGTSYSLTINRMEAEDAATYYCLEWSGYPYTFGGGTKLELK
B2: in the test with SC142-reactive antigen [2], the koff was 0.000776 s⁻¹.

(Values after paper PMC2376138 (2002).)
